Data reported in publication PMC8263589, “The role of membrane destabilisation and protein dynamics in BAM catalysed OMP folding” (Nature Communications, 2021).

Experiments:
[1] = target: WT BAM complex (BamABCDE-His6) (Escherichia coli K-12); test: cryo-EM structure; purified BAM (WT or BAM-LL) mixed with Fab1 in DDM micelles, pH 8.0, 150 mM NaCl; WT BAM with a 2-fold molar excess of Fab1, complex isolated on Superdex 200; BAM-LL and Fab1 mixed 1:1; settings: both partners purified
[2] = target: BamA, as the subunit of WT BAM (Escherichia coli K-12); test: as above; settings: both partners purified

binding result [1]: binds
binding result [2]: binds
B1: Fab1, anti-BamA monoclonal antibody Fab fragment (Fab, V domains shown)
VH: EVQLVESGGGLVQPGRSLKLSCVASRFTFSNYGMNWIRQTPGKGLEWVAYIGSTSSHIYYAETVKGRFTISRDNAKNTLYLQMTGLRSEDTALYYCVGHVRKLGAFFDYWGQGAMVTVSS
VL: DIQMTQSPASLSASLGETVTIECRASEDIHSRLAWYQQKPGKSPQLLIYNANSLHTGVPSRFSGSGSGTQFSLKINSLQSEDVASYFCLQYYNYPPYTFGAGAKLELR
notes: heavy chain of Fab1 in the crystal structure deposited here (PDB 7BM5); light chain of Fab1 in the crystal structure deposited here (PDB 7BM5); also called bactericidal Fab fragment; Fab of MAB1; source: E. coli, purified (Protein G, SP Sepharose, Superdex 75)
